Experiment: soluble fraction after stress (log2 fold change); higher = more stays soluble; pooled small domains, quantitative proteomics
Conditions: stress: 75 degC
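Further: 20 min heating vs room temperature control held 20 min.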

| Sequence | soluble fraction (log2) |
| --- | --- |
| HMEYDEVVVVKQIIPKGKNTMVAHLKHLKEHGETGFLKQAVGYLKLHASEIPFSVDAVISEVH | -0.253 |
| HMEYDYKVIDFFKDYYSYLNYQEIEPNILDKQLTTLTEEESAKIAGIMKLDYEDFTRGIEIVTGS | -0.536 |
| HMEYLIENYGSVINQARMKKGMTQEQLSSKTGVSQAYIRSIESQNMKPTDAVARKIEFELGIKLFE | -1.05 |
| HMEYSKSIKRLREDKNLTVEELAKRLSLDVEEIQKAEDGEDVDQKTLEAIARYFGVQYDSLVEGTAKSK | -0.0335 |
| HMEYTTEELDSLLKLYFQTHESINRNEFEQLTSYTRTTASRRLKTLVQAGKLQNIGLYRFPVYKPTEGNF | -2.82 |
| HMEYYWHQLKGLEVVNTRGESLGRVRRLLETGANDVLVLEGEQERLIPYVPDTIKQVDLAKGLIEVAWDRD | -0.17 |
| HMFAADIGVGIVDADSLRVRSEPSTGAPIVTSLLRGTQVTVQEKLDGWYRITYNDVSGFVSAEYLIFTADE | -0.358 |
| HMFAGEWKQDASGWWYQNDDGSFTRNGWQNISGKQYYFNENGYMLHDTTTPDGKQVGSDGSLV | 0.0573 |
| HMFAKVEGITGDILDKLQQQRGFLALSDKSSPEAIYDTFGVSKKVFKQAIGTLFKQQKISIEAEGIRLV | -1.56 |
| HMFASSADGVEGLKTNPIFASTKEKSDAGKLLYTRYLAIGIFRMLELAKATDPKALEALVEAGG | 0.259 |
| HMFDDEELDTFAGRQSDSYDQQEVEQFSDVLHTMRQDEVQAWWRSLTLRGISLPDELKDEVIML | -0.481 |
| HMFDDLSTNLRDLAHNYIEKYSPSKQQLKVFLLKKYLMKFKGSKTKKEISEIIDKIISNLEENKYLNDEL | 0.36 |
| HMFDFMVLGQAIKKARESKEMTREQLAEILDVAPRHIQSIENEGQYPSFPLFIRLVTMFNISVDQY | -2.31 |
| HMFDGNIKIVEDAFSVTIVARGTEVKISGDPENVYLASKTVEGLLTLIDKGEAITDQRVHYVIGLVREG | -2.45 |
| HMFDGTLSIYPNPSKGIFNLDLLNVKDGEYTITVDNLLGQEVYSEIRNVINSSSKTLDLSNLTKGV | -0.204 |
| HMFDLKKIYGTILDETKSSLLLSTDDGREVQIIKTDGTEVLASGLGVYVEVAYRDETPDGYPIALTI | -0.41 |
| HMFDTVKIGKRIAELRKKRDMTQFELADRLGISYQAVSNWERGNSMPDIAKLPELAEIFGVTVDEILG | 0.283 |
| HMFEARNTTFSEDGKTITETYGVKRIETEFVSDSTIVQKLYDNDVLTKTKTITFSADGLSIKEDV | -0.0561 |
| HMFEDYNELDEYLETRFIPTYVLLKQRKNANGEIDHFPSIRLQHIMALKLSEAELEHVMNYLKEKNIRVG | -1.68 |
| HMFEKVKLTLTIPSKYSGSTYSALRNRMNKFSKEEWLSNGDLKIEIEVTGGQKTDIYTLINKLTNGEAIIE | -1.25 |
| HMFELDELDLVILKNLANGLSKKQIRVKLKKMDLRPNSESAIDKRVSKLFDEFGAKNSTELVAKLIREGL | -2.71 |
| HMFELTVGTPIRVIREPYFGKLGTVTELPAQLMVVESGTEVRVLKAKIEGEGEVLVPRANVEIIATG | -1.38 |
| HMFELVKISENIPIRDLAETLKTTPNEIIKELMVFGVLANINQTLNFDLASKVADKLGFEVELL | -0.266 |
| HMFEMPTSLVRTLSAIAIKQPVMQSEIIKLRGAGAYDHIKELIIRELVHRKEEGRSPILTTTKKFQEYFRL | -2.52 |
| HMFERIYVFSRDGDIIELPKGSTVLDFAYHVHTHVGNRAQAARVNKRYVPLTYQLKTGEQVEIIIS | -1.44 |
| HMFEYDEEEYEKLGPNADLTIKSMTDWGQSLVRKGVWSESDFEEFKIMGGTAQGLRALQKVRSYY | -0.649 |

| Sequence | soluble fraction (log2) |
| --- | --- |
| HMFFAGLSPEAARTLDSLPLHSWSSVEQIARQAGLNIETVRKELGLLELSGIALSRQGRFRRA | -1.07 |
| HMFFFILNKGAKSGGEITHAVLNGSIVSKPAGWDAFHGLVLAKEKLSSEEIQRQMKELGVEMEIVPL | -2.4 |
| HMFGDQMQSYLSRLSQIDVDIIALKYGDNFTYREIGLILEMSEDSVRQRAVRARKKLETMIQKG | -3.31 |
| HMFGEDNLKSKEIKERVTEVAKHADDPVWIEARRKWKDENPDQNVKDYQQAYISGRIHELPWDVSYI | 0.117 |
| HMFGEKEFYQWIGKTAGEKFSGLPAAVIKSLYKYWREYNLSEEDIMGFIRQTELLPKRTPLDVELFFEK | -0.857 |
| HMFGELTPDTAKRFLLTAREQEMASLIAQGLTNKEIAFRLGISEATVRTHIYNLFQKVGVQSRIELLNVLH | -1.69 |
| HMFGNTGETSGTGVAFTRSPVDGENKIFGEFLVNAQGEDVVAGIRTPQPISEMEQAFPEVYSKFESVAEIL | 0.0261 |
| HMFHDALVSFAERRVIFMKELVNRLNEARKAYYEGESIMSDKEYDNLYDKLVKMELTTGVVLPNSPTEEVG | -1.33 |
| HMFIEHSKYKLSFKYNQLGKISNVINSNNGIIMDKHFDQNITLLAKLTENTFQEIIKHFPTIIIKRL | -3.74 |
| HMFIEPPSLEELERRLRGRGTETDDVVDMRMRTALVELSQKMEYDYRLVNDDLDEATRQLVAYVNEIAEQ | -0.0555 |
| HMFIPMTDAQRHLFANKLAKLPELSEYSRGTESYEDFAIRIADMLLEPPKFRMFYPLLEQLGF | -1.77 |
| HMFIVTDQMQRVLDYITEKEKATNNDLEELLGVKSTRIYTITRKLIQHNLIIPVGKGKNKYYIL | -0.902 |
| HMFKDVTVPSVINKTEAEATNMLKGLNLVVSVEYEENANKSDGIVTAQNVNANKVIKEGETVTITVNKQP | 0.113 |
| HMFKNWMPFDEARIFVRKLKFNSHDEFRKYLKANEINIPSKPWSTYKGKGWVSIGDFLGTHR | -3.26 |
| HMFLPGETFDVKIVKIGEGENQGVGYLDDGTMIVIENGRDHLNELARVIVTRVLQNSAGQMIFSDYEE | -2.21 |
| HMFLTPLEETRLAIEEVVIAKNIAIDLFPRESAIRKQQHELIYHYHLKGLTVGTEKNKRLRIFPRGY | 0.0279 |
| HMFLTSDEGKIMQLLEDKQRITRKDAQELLGVSQSTAGRILKTLVDNGQITQRGGGRTTRYELIK | 0.104 |
| HMFMKNTEVALAIKGKFSNQTTITSKELVLFLSDLFPELSNKTIPWKINQLKAENLIYQTGRGIYTFN | -2.53 |
| HMFMMVAGHLQIKNEKYYMVLELRTEQGERKTKWIGTGLAVKGNKRRAEAMLEETRTKYLSPV | -2.18 |
| HMFMPGTIIKQFRELRNYSQDYVSRKMGISQNAYSKIENNITQLTVTHVKQLSSILDVPIVELLR | -3.71 |
| HMFMSDDDIRILVKEWLQSQNRKSYQLAEEIGIRPQTFYAQMSVRKISANTKKALSRIIPGL | -0.769 |
| HMFMSKTAMVAIISEADKYGLFNIPEGLSVEKTADEIFEGHIEVDFDKLKNELDFVYKNEALEKQFQEN | -0.852 |
| HMFNPEQDPKQLTGRERAVADLIGLGANNAEIAIRLSMSERTVKAHLTSIFQQLNVRDRVQLALVMNQL | -0.493 |
| HMFPASQPVPTDLNQIVRAGLEVFSGRLEGIDVRVSLEPELPRVNVDPEHFKRIVVNLVDNAAEAMQNS | 0.183 |
| HMFPATAPQLKAVHAILGKQGISDELDKLARVNEWLVGLNKEPVAAISELDKHTTSGLIDHLQGELNE | 0.297 |
| HMFPDLSPEQQRIVDVLTKSNDLQLNQLSVKTGIPIGDITSILFQMEMMGVVKPMAGGNYHLL | -1.68 |

| Sequence | soluble fraction (log2) |
| --- | --- |
| HMFPDLTEDEQLIVDVLQRTGDLQINSLIVEANIPVNKMSEILFELEMKGVIRTLAGGVYQLL | -2.05 |
| HMFPDRLRELRKGRNITLETLAEEMNKHLEPGQKPNTAAQIGNWERGDRSPSYIEVRKLADFFNVSMDFL | -0.586 |
| HMFPELNAEETQVVQLLQKQTEGMQVNSLVVESNIPITRMSGILFELELKGIIRNYAGGVYKL | -3.2 |
| HMFPELSEEAKVIVDALSKENDQQLNVLIANTGMAVGTMQAKLFELEMQGVVKPLAGSVYHLM | 0.111 |
| HMFPELTDDEQLIVSTLAKTNDMQINMLAVRTGIPVQRMSALLFSLEMKGVVKMYAGGTYHLL | -2.93 |
| HMFPNQLLISRLSNQLSASERFAAVSSIAQLKNIDYDVLHVLVHTMNSDPNSNVRLAALEALSR | -0.459 |
| HMFPQQGEIRQGVIASITPDQILVNVGTKSEGIISGKELEAISKSERDSLNVDQKIAVYILDPEDSNG | 0.395 |
| HMFQNPSQVVTTRVGELRAAIPTAQQGRITMGVAVVEDANSVRSVLISTSEPRGYLRPGVTLGPGETMV | 0.0661 |
| HMFQPFFENLRKASIPVSLREYLTFLEGMKKGLVTYDIEAFYFLARAAMVKDERNIDKFDRAFSATFKG | -0.306 |
| HMFQTAADVAYRIISQKILDGEFPPGMKLSRRKMAEVTSVSVIPVIEALKKLEEDGLVESKPQWGSFVTI | -1.69 |
| HMFQYEKIKDYILTGLEEGTWQAGDKIPSEAELVMSLNVSRMTVNRAVRELANSGLLVRIPGAGTFVATE | -0.643 |
| HMFSIDRNIRRLRKEAGLTQEELAQKLFVTRQTISLWELGKVHPDLETLQKLAEQFQVDLLQVLYGPE | -2.33 |
| HMFSLDMDRLVRPGFMASGNVTFSDGVTGKWALDQMGRLALETAQKGYQPSPADVQAFQRELQQQLQRQG | 0.0415 |
| HMFSPTKLKEKRESQGLSQSQLASSLGISRASYFNWESGKTKPNQNNLSKLSEILNVDPRYF | 0.489 |
| HMFSSVSVPAELSNQRFDKVVAELTPDLSRSKIKQLILLGKVLLNGEVTPPKQKVETGDEIEIFYTRQIE | -0.797 |
| HMFTLDIGTIIRNRRLELNLTLEEIGNAVGVSKSTVQKWENGFISNMKRDKISALAKVLNINPVTLITGEY | -3.44 |
| HMFTLNEIIGQKIRNARISAGLTLDELSKMTGISAAQLSSLETGYRRANIDTLYAIAKAIGIDVSNLLKY | -1.39 |
| HMFTRFTVAQDGWTIGGFTAKEMAVSTAKQHAVDTGKPVTVVAHVAGGGSREAIFNSDGTNDKIWN | 0.065 |
| HMFTYEETIGKSADVYLTIPALKAGKGKIIISVRGSVHELDAMTNNAEKISTGAVVKIVRIEHGNILLVEN | -1.69 |
| HMFVEKDSIINKGNNSYNFVITDNNNKVLVEYNGLLPDLFKEEQGVVIEGRLKSDFIIHAFTVF | -0.0707 |
| HMFVGVDMAVKEEIGKEGVAFTDLRPAGKVSIGDDVYDAVSETGAFITRGTSVRVLKYQAGQVYVVK | -1.3 |
| HMFVTFFHELKSAGVPVSLREYLTLMEAMDRDLASRRVEEFYYLARTALVKDERNLDKFDRVFGHVFKGL | -4.08 |
| HMFWVESDVDFVDKTSAHNAIKENERVIGMYISYRLNGTWTTEQYVGIDTSKDNWENPDNWNIL | -1.42 |
| HMFYLPEPLTEQELRILGMLLDGRSNPEIAAELFIAVGTAKWHVHNILQKLGVANRAQAIVKAHELGLT | -2.08 |
| HMFYNELMNFIVYKDSQKIGKIVNINDKLPQPVFEVLINDKKFMVPIHDDFIEKIDKEKKSIHIVIPDGLL | -0.684 |
